Experimental findings from US20250320281A1 are described below.

Holding throughout (assay): cell-based or functional assay
The target of assay [1] is HIV-1 Env of isolate 92UG114 (pseudovirus) (HIV-1).
For assay [2], the target named is HIV-1 Env of isolate 6535.3 (subtype B pseudovirus) (HIV-1).
Assay [3] addresses HIV-1 Env of isolate MGRM-D-018 (pseudovirus) (HIV-1).
Assay [4] concerns the target HIV-1 Env of isolate CMU02 (clade AE), on pseudovirus (HIV-1).
Assay [5] concerns the target HIV-1 Env of isolate MGRM-F1-023 (HIV-1).
The target of assay [6] is HIV-1 Env of isolate MGRM-F1-014 (HIV-1).
The target in assay [7] is HIV-1 Env of isolate MGRM-C-026 (pseudovirus) (HIV-1).
Assay [8] addresses HIV-1 92RW020 Env (pseudovirus, clade A) (HIV-1).
Assay [9] deals with HIV-1 APV13 Env (pseudovirus) (HIV-1).
Assay [10] addresses HIV-1 Env of isolate 92WR021 (HIV-1).
Assay [11] addresses HIV-1 Env of isolate 98CN009 (HIV-1).
Assay [12] concerns the target HIV-1 Env of isolate MGRM-AE-002 (subtype AE) (HIV-1).
The target in assay [13] is HIV-1 Env of isolate 92BR020 (HIV-1).
The target of assay [14] is HIV-1 Env of isolate 92WR026 (HIV-1).
For assay [15], the target named is HIV-1 Env of isolate MGRM-AG-003 (subtype AG) (HIV-1).
The target of assay [16] is HIV-1 Env of isolate 92TH021 (subtype AE) (HIV-1).
In assay [17] the target is HIV-1 Env of isolate MG RM-D-020 (HIV-1).
Assay [18] deals with HIV-1 Env of isolate MGRM-Chronic-B-017 (subtype B) (HIV-1).
The target of assay [19] is HIV-1 Env of isolate VLGCB3 (subtype B) (HIV-1).
Assay [20] has as its target HIV-1 Env of isolate 92WR020 (HIV-1).
Assay [21] addresses HIV-1 Env of isolate MGRM-Chronic-B-011 (subtype B) (HIV-1).
Assay [22] deals with HIV-1 Env of isolate MGRM-AE-001 (subtype AE) (HIV-1).
For assay [23], the target named is HIV-1 Env of isolate CMU02 (subtype AE) (HIV-1).
For assay [24], the target named is HIV-1 Env of isolate APV-6 (HIV-1).
Assay [25] concerns the target HIV-1 Env of isolate MGRM-A-008 (subtype A) (HIV-1).
In assay [26] the target is HIV-1 Env of isolate MGRM-AG-013 (subtype AG) (HIV-1).
The target in assay [27] is aMLV envelope (negative control pseudovirus).

Sequence of 5329_C19 (PGT-136) (antibody) (VH): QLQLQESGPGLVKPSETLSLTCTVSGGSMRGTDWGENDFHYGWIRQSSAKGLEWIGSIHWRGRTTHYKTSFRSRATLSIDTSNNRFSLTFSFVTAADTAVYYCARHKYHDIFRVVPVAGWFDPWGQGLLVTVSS
Sequence of 5329_C19 (PGT-136) (antibody) (VL): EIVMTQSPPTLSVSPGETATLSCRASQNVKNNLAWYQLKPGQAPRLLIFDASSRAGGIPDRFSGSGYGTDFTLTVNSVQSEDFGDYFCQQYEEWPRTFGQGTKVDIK

Consider 4838_L06 (PGT-121) (antibody), for which the IC50, pseudovirus neutralization is 0.004 µg/mL in [1], 0.005 µg/mL in assay [3] and over 10 µg/mL in [4]. Also, the IC50 (µg/mL), pseudovirus neutralization worked out at 0.005 µg/mL in [2] and 0.097 µg/mL in [5].
As for 4858_P08 (PGT-123) (antibody), the IC50 (µg/mL), pseudovirus neutralization in assay [6] came out at 0.111 µg/mL; in [2] it was 0.004 µg/mL; in assay [5], 0.053 µg/mL. Also, in [7], the Primary Neutralization Index (B cell culture supernatant) came out at 33.8. The IC50, pseudovirus neutralization in assay [1] is 0.005 µg/mL; in assay [3], 0.007 µg/mL; in assay [4], over 10 µg/mL. In assay [8], this substance returned an IC50 neutralization of 0.0038 µg/mL. Besides, the neutralization IC50 (pseudovirus) in assay [9] came to 0.222 µg/mL.
Take 4877_D15 (PGT-122) (antibody): the results for the IC50 (µg/mL), pseudovirus neutralization in assay [6], in assay [2] and in assay [5] were 0.195 µg/mL, 0.006 µg/mL and 0.154 µg/mL, respectively. In addition, the IC50, pseudovirus neutralization in [1] is 0.011 µg/mL; in [3], 0.007 µg/mL; in assay [4], over 10 µg/mL. In addition, the IC50 neutralization in [8] amounted to 0.0072 µg/mL. Moreover, the neutralization IC50 (pseudovirus) in assay [9] turned out to be 0.992 µg/mL.
For 5123_A06 (PGT-125) (antibody), the IC50 (µg/mL), pseudovirus neutralization is over 50 µg/mL in assay [6], 0.01 µg/mL in assay [2] and 0.12 µg/mL in [5]. This substance also returned a Polyclonal Transfectant Neutralization Index in [7] of 88.3. This substance displayed a Primary Neutralization Index (B cell culture supernatant) in assay [7] of 512. Also, the results for the IC50, pseudovirus neutralization in assay [1], in [3] and in [4] were 0.349 µg/mL, over 50 µg/mL and over 10 µg/mL, respectively. In addition, in [8], the IC50 neutralization was determined as 0.0028 µg/mL. The same substance had a neutralization IC50 (pseudovirus) in [9] of 0.0128 µg/mL.
As to 5141_B17 (PGT-126) (antibody), the results for the IC50 (µg/mL), pseudovirus neutralization in assay [6], in assay [2] and in [5] were over 50 µg/mL, 0.022 µg/mL and 0.009 µg/mL, respectively. In assay [7], the Polyclonal Transfectant Neutralization Index was 102. Besides, the Primary Neutralization Index (B cell culture supernatant) in [7] turned out to be 654. In addition, the IC50, pseudovirus neutralization was 0.038 µg/mL in assay [1], 0.009 µg/mL in assay [3] and over 10 µg/mL in assay [4]. In assay [8], this substance came in with an IC50 neutralization of 0.0046 µg/mL. The substance further returned a neutralization IC50 (pseudovirus) in assay [9] of 0.012 µg/mL.
For the substance 5145_B14 (PGT-127) (antibody), the IC50 (µg/mL), pseudovirus neutralization was over 50 µg/mL in assay [6], 0.02 µg/mL in [2] and 0.119 µg/mL in assay [5]. In [7], the Polyclonal Transfectant Neutralization Index was found to be 2.62. The Primary Neutralization Index (B cell culture supernatant) in assay [7] is 86.9. The IC50, pseudovirus neutralization in [1] is 7.09 µg/mL; in [3], 0.021 µg/mL.
Regarding 5147_N06 (PGT-130) (antibody), the IC50 was determined as 0.004 µg/mL in [10], 0.037 µg/mL in assay [14] and 0.039 µg/mL in [20]. The IC50 (µg/mL), pseudovirus neutralization in assay [11] is 0.136 µg/mL; in assay [12], 1.53 µg/mL; in assay [15], 0.041 µg/mL; in [16], 0.009 µg/mL; in assay [17], 24.7 µg/mL; in assay [22], 1 µg/mL. The IC50 (µg/mL), pseudovirus neutralization was over 50 µg/mL in assay [23], over 50 µg/mL in assay [25] and 0.01 µg/mL in assay [26]. Besides, the neutralization IC50 is 1.4 µg/mL in assay [13] and over 50 µg/mL in assay [24]. In addition, the Polyclonal Transfectant Neutralization Index in assay [7] amounted to 1.05. The Primary Neutralization Index (B cell culture supernatant) in assay [7] was 3. Moreover, the IC50 neutralization in [18] was over 50 µg/mL; in [19], 4.6 µg/mL; in [21], 0.153 µg/mL; in [8], 0.014 µg/mL. In addition, the Neutralization by PGT-130, IC50 in assay [9] was determined as 0.0345 µg/mL. In assay [9], this substance had a Neutralization by PGT-130, IC80 of 0.573 µg/mL. The same substance yielded a Neutralization by PGT-130, IC90 in [9] of 2.88 µg/mL. Besides, in assay [9], the Neutralization by PGT-130, IC95 was over 10 µg/mL. Also, the neutralization IC50 (pseudovirus) in assay [9] turned out to be 0.0345 µg/mL. In [4], this substance displayed an IC50, pseudovirus neutralization of over 10 µg/mL.
In the case of 5329_C19 (PGT-136) (antibody), the IC50 in assay [10] was over 50 µg/mL; in assay [14], over 50 µg/mL; in assay [20] it was 2.33 µg/mL. Moreover, the IC50 (µg/mL), pseudovirus neutralization in assay [11] is 0.428 µg/mL; in [12], over 50 µg/mL; in assay [15], over 50 µg/mL; in assay [16], over 50 µg/mL; in assay [17], over 50 µg/mL; in assay [22], over 50 µg/mL. In addition, the IC50 (µg/mL), pseudovirus neutralization in assay [23], in [25] and in assay [26] was over 50 µg/mL in each case. Besides, the IC50 (neutralizing activity, pseudovirus) in [27] and in assay [9] was over 10 µg/mL each time. Besides, the neutralization IC50 is 8.61 µg/mL in assay [13] and over 50 µg/mL in [24]. For the same substance, the Primary Neutralization Index (B cell culture supernatant) in [7] was 6. Also, the IC50 neutralization was over 50 µg/mL in assay [18], over 50 µg/mL in assay [19], over 50 µg/mL in assay [21] and 0.738 µg/mL in assay [8]. Moreover, the IC50, pseudovirus neutralization in assay [4] is over 10 µg/mL.
In the case of 5343_B08 (PGT-135) (antibody), the IC50 in assay [10] was over 50 µg/mL; in assay [14], 0.068 µg/mL; in [20] it was 0.067 µg/mL. Moreover, the IC50 (µg/mL), pseudovirus neutralization was 0.071 µg/mL in [11]; over 50 µg/mL in [12]; over 50 µg/mL in assay [15]; over 50 µg/mL in assay [16]; over 50 µg/mL in [17]; over 50 µg/mL in assay [22]. Further, the IC50 (µg/mL), pseudovirus neutralization in [23], in assay [25] and in [26] was over 50 µg/mL each time. Further, the values for the IC50 (neutralizing activity, pseudovirus) in [27] and in [9] were over 10 µg/mL and 0.545 µg/mL, respectively. Besides, the neutralization IC50 in assay [13] is 0.073 µg/mL; in assay [24], over 50 µg/mL. Besides, the Primary Neutralization Index (B cell culture supernatant) in assay [7] amounted to 6.5. For the same substance, the IC50 neutralization in [18] was over 50 µg/mL; in [19] it was 0.142 µg/mL; in assay [21], over 50 µg/mL; in assay [8], 0.157 µg/mL. The substance also displayed an IC50, pseudovirus neutralization in [4] of over 10 µg/mL.
